Consider two molecules from PMC9465349, “G protein–coupled receptor kinase phosphorylation of distal C-tail sites specifies βarrestin1-mediated signaling by chemokine receptor CXCR4” (The Journal of Biological Chemistry, 2022).

Sequences and labels used below:
B2: βarrestin1-GFP10 (natural protein, UniProt P49407 1-418, looked up)
chain: MGDKGTRVFKKASPNGKLTVYLGKRDFVDHIDLVDPVDGVVLVDPEYLKERRVYVTLTCAFRYGREDLDVLGLTFRKDLFVANVQSFPPAPEDKKPLTRLQERLIKKLGEHAYPFTFEIPPNLPCSVTLQPGPEDTGKACGVDYEVKAFCAENLEEKIHKRNSVRLVIRKVQYAPERPGPQPTAETTRQFLMSDKPLHLEASLDKEIYYHGEPISVNVHVTNNTNKTVKKIKISVRQYADICLFNTAQYKCPVAMEEADDTVAPSSTFCKVYTLTPFLANNREKRGLALDGKLKHEDTNLASSTLLREGANREILGIIVSYKVKVKLVVSRGGLLGDLASSDVAVELPFTLMHPKPKEEPPHREVPENETPVDTNLIELDTNDDDIVFEDFARQRLKGMKDDKEEEEDGTGSPQLNNR
notes: βarrestin1 (βarr1); plasmid a gift from Michel Bouvier; Gift plasmid; also called βarr1-GFP; βarr1-GFP^10; source: HEK293, transiently transfected (PEI), in live cells

Holding throughout (settings): partners not purified
The target of experiment [1] is B2. In words: FRET or BRET; BRET2 in live HEK293 cells coexpressing FLAG-NTS1, Rluc8-STAM1 and βarr1-GFP; increasing concentrations of neurotensin, 10 min, 37 °C. (Bioluminescence resonance energy transfer reports proximity on the nanometre scale.)
The target in experiment [2] is B2. In words: FRET or BRET; BRET2 in live HEK293 cells coexpressing FLAG-AT1a, Rluc8-STAM1 and βarr1-GFP; increasing concentrations of angiotensin II, 10 min, 37 °C.
Experiment [3] addresses T1, NTS1-Rluc8 (neurotensin receptor 1) (UniProt P30989 1-418).
T1 construct: neurotensin receptor 1 (NTS1); 'the NTS1-coding region' amplified by PCR from the NTS1-Tango plasmid; New plasmid; source: HEK293, transiently transfected (PEI), in live cells
As to the kind of experiment: FRET or BRET; BRET2 in live HEK293 cells coexpressing a GPCR tagged with Rluc (CXCR4-Rluc3, or GPCR-Rluc8; donor) and βarr1-GFP10 (acceptor); increasing concentrations of the receptor's agonist at 37 °C; vehicle or 1 μM Gö6983 (little effect, CXCR4).

The target of experiment [4] is T2, CXCR4-Rluc3 (UniProt P61073 1-352).
T2 construct: chemokine receptor CXCR4; plasmid a gift from Nikolaus Heveker; Gift plasmid; also called Rluc3-tagged CXCR4; source: HEK293, transiently transfected (PEI), in live cells
T2 sequence (P61073 whole entry): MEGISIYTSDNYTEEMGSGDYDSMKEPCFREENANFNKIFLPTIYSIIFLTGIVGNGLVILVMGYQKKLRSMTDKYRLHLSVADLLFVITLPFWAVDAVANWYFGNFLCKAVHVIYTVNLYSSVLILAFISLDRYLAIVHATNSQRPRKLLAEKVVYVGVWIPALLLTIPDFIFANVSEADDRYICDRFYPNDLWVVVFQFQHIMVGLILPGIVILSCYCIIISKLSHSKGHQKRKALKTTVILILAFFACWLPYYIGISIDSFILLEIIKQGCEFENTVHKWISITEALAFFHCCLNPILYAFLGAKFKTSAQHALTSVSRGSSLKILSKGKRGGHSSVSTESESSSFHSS
Described as above.

The target of experiment [5] is T2, CXCR4-Rluc3. As to the kind of experiment: FRET or BRET; as a13 for CXCR4-Rluc3 and βarr1-GFP, but in the presence of 30 μM GRK2/3 inhibitor compound 101.

T1 sequence (P30989 whole entry): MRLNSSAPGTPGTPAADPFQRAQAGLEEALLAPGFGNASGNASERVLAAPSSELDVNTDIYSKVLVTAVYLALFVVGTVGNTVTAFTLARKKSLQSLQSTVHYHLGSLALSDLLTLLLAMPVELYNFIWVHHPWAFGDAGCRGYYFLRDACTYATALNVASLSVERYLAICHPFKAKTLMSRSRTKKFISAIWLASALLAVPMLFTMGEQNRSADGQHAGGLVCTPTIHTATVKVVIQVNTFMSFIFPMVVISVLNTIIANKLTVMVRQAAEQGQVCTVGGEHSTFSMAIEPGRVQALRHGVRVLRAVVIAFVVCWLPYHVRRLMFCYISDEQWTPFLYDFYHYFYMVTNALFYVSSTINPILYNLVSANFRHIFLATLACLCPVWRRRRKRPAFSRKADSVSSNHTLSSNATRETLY

B1: STAM1 (signal-transducing adaptor molecule 1) tagged at the N terminus with Rluc8 (natural protein, UniProt Q92783 1-540, looked up)
chain: MPLFATNPFDQDVEKATSEMNTAEDWGLILDICDKVGQSRTGPKDCLRSIMRRVNHKDPHVAMQALTLLGACVSNCGKIFHLEVCSRDFASEVSNVLNKGHPKVCEKLKALMVEWTDEFKNDPQLSLISAMIKNLKEQGVTFPAIGSQAAEQAKASPALVAKDPGTVANKKEEEDLAKAIELSLKEQRQQSTTLSTLYPSTSSLLTNHQHEGRKVRAIYDFEAAEDNELTFKAGEIITVLDDSDPNWWKGETHQGIGLFPSNFVTADLTAEPEMIKTEKKTVQFSDDVQVETIEPEPEPAFIDEDKMDQLLQMLQSTDPSDDQPDLPELLHLEAMCHQMGPLIDEKLEDIDRKHSELSELNVKVMEALSLYTKLMNEDPMYSMYAKLQNQPYYMQSSGVSGSQVYAGPPPSGAYLVAGNAQMSHLQSYSLPPEQLSSLSQAVVPPSANPALPSQQTQAAYPNTMVSSVQGNTYPSQAPVYSPPPAATAAAATADVTLYQNAGPNMPQVPNYNLTSSTLPQPGGSQQPPQPQQPYSQKALL
notes: STAM1 (signal-transducing adaptor molecule 1); the plasmid holds 'the STAM1-coding region' in pcDNA3; New plasmid; Rluc8 fragment from pTRE-Tight-Rluc8 (Addgene 79844); also called Rluc8-STAM1; RLuc8-STAM1; source: HEK293, transiently transfected (PEI), in live cells; not shown: Rluc8, N-terminal, kept
Regarding B1, in the experiment with βarrestin1-GFP10 [1], the “potency (EC50) of the agonist neurotensin for the BRET response” value was found to be 0.22 nM. Further, the “potency (EC50) of the agonist angiotensin II for the BRET response” value with βarrestin1-GFP10 [2] was determined as 0.07 µM.

With B2, the “potency (EC50) of the agonist neurotensin for the BRET response” value in experiment [3] was determined as 0.13 nM. For the same molecule, the “EC50 of the agonist CXCL12 for the BRET response (vehicle)” value with CXCR4-Rluc3 [4] was 0.3 nM. In addition, the “EC50 of the agonist CXCL12 for the BRET response (with GRK2/3 inhibitor compound 101)” value in the experiment with CXCR4-Rluc3 [5] came to 7.79 nM.
